Data published in patent US20030059461A1 (SIBTECH, published 2003).

Key:
[1] = molecular target: T1, soluble KDR-Fc receptor (human, UniProt P35968 20-764, limits assumed); test: competition with 125I-VEGF165 for soluble KDR-Fc
T1 construct: extracellular domain; also called soluble, secreted extracellular domain of the KDR/flk-1 receptor fused to the Fc portion of human IgG; not shown: Fc portion of human IgG

[2] = molecular target: T2, KDR/flk-1 receptor on 293/KDR or PAE/KDR cells (UniProt P35968 20-1356, limits assumed); test: as described in Example 1.G.2 (binding to KDR/flk-1)
T2 construct: whole, on cells; also called cellular KDR/flk-1 receptors

[3] = molecular target: T2, KDR/flk-1 receptor on 293/KDR or …; test: Scatchard analysis of 125I-labelled protein binding to 293/KDR cells
[4] = molecular target: T2, KDR/flk-1 receptor on 293/KDR or …; test: Scatchard analysis on 293/KDR cells

T2 sequence (P35968 20-1356 limits assumed): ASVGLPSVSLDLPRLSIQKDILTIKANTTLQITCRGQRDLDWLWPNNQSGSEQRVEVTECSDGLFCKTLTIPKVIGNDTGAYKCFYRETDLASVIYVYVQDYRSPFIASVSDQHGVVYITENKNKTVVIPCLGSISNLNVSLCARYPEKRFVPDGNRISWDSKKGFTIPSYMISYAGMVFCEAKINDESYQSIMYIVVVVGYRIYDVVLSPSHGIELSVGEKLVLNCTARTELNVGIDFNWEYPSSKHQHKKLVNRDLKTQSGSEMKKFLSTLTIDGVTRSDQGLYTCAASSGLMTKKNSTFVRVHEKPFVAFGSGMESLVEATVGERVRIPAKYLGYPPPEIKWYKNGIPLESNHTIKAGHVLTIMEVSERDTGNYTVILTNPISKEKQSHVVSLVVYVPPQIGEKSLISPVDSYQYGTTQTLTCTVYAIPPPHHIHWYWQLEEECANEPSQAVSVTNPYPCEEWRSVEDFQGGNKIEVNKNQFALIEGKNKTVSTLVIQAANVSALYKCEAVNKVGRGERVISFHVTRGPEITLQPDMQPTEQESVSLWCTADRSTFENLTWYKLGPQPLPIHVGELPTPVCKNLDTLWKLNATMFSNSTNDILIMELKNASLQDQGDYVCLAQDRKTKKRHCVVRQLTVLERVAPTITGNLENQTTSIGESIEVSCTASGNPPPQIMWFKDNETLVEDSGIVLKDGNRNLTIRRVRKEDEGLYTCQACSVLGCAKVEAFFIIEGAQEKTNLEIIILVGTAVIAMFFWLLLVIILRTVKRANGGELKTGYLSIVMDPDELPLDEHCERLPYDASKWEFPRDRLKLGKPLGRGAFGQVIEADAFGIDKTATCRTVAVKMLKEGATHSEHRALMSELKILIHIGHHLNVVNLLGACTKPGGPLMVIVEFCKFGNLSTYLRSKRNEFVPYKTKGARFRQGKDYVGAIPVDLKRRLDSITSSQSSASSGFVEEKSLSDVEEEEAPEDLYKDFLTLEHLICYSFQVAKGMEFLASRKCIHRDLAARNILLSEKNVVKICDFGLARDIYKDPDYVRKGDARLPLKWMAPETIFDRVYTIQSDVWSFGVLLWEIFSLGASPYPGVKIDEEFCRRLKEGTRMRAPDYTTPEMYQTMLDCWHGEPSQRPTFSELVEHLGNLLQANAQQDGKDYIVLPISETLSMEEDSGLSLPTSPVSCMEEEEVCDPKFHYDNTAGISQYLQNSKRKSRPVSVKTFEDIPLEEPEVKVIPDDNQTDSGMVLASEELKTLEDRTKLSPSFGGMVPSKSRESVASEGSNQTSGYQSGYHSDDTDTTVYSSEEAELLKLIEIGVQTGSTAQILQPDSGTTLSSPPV
T1 sequence (P35968 20-764 limits assumed): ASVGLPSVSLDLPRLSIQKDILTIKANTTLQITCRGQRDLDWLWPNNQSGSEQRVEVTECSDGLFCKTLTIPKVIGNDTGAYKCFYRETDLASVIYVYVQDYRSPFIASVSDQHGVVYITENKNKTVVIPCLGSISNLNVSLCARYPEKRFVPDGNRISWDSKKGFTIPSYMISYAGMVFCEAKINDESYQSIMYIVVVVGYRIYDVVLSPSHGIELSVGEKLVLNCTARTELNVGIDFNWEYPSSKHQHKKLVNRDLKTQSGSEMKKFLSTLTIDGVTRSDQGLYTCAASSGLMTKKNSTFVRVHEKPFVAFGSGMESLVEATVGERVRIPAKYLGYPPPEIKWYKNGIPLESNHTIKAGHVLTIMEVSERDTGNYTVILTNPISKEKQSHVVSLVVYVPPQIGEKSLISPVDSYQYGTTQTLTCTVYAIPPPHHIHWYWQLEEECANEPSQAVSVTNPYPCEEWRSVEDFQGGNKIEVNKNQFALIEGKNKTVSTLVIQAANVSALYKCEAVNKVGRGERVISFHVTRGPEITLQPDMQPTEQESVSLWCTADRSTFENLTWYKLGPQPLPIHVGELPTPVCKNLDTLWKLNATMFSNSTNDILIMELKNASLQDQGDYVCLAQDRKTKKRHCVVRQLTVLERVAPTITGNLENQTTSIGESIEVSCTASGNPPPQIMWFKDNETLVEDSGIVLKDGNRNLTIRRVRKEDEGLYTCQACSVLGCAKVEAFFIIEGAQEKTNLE

binding result [1]	binding result [2]	Kd [3] [nM]	fold lower affinity than VEGF165 [4] [fold]	Binder
binds	binds	–	–	txFVEGF189 fusion protein (ligand, human, UniProt P15692-2 27-215, looked up, not shown: large carriers, mature; also called txVEGF189) APMAEGGGQNHHEVVKFMDVYQRSYCHPIETLVDIFQEYPDEIEYIFKPSCVPLMRCGGCCNDEGLECVPTEESNITMQIMRIKPHQGQHIGEMSFLQHNKCECRPKKDRARQEKKSVRGKGKGQKRKRKKSRYKSWSVPCGPCSERRKHLFVQDPQTCKCSCKNTDSRCKARQLELNERTCRCDKPRR
–	–	3.5	~10	txFVEGF121 fusion protein (ligand, human, UniProt P15692-9 27-147, looked up, not shown: large carriers, 125I label in the Scatchard experiment, mature; also called txVEGF121) APMAEGGGQNHHEVVKFMDVYQRSYCHPIETLVDIFQEYPDEIEYIFKPSCVPLMRCGGCCNDEGLECVPTEESNITMQIMRIKPHQGQHIGEMSFLQHNKCECRPKKDRARQEKCDKPRR
